Data set [1] relates to hemagglutinin H5 on virus particles (Influenza A virus A/chicken/Kurgan/3654at/2005 (H5N1)). Put plainly: ELAA.
The subject of data set [2] is hemagglutinin H7 on virus particles (Influenza A virus A/mallard/Sweden/91/2002 (H7N9)). As to the kind of experiment: ELAA.
Data set [3] concerns hemagglutinin H3 on virus particles (Influenza A virus A/England/42/1972 (H3N2)). As to the kind of experiment: ELAA.
Data set [4] deals with hemagglutinin H9 on virus particles (Influenza A virus A/duck/Primorie/3628/2002 (H9N2)). As to the kind of experiment: ELAA.
Data set [5] has as its system hemagglutinin HA1 subunit H9 (recombinant, Abcam ab67740) (Influenza A virus H9 (strain not given)). As to the kind of experiment: SPR.
Data set [6] deals with hemagglutinin HA1 subunit H3 (recombinant, Abcam ab69749) (Influenza A virus H3 (strain not given)). As to the kind of experiment: SPR.
The test system of data set [7] is hemagglutinin HA1 subunit H1 (recombinant, Abcam ab69741) (Influenza A virus H1 (strain not given)). As to the kind of experiment: SPR.

In the case of “TTGGGGTTATTTTGGGAGGGCGGGGGTT [5'-biotin RHA0385]”, the Kd in data set [1] was determined as 4 nM; in data set [2], 8 nM; in data set [3], 2 nM; in data set [4] it was 5 nM.

As for “TTGGGGTTATTAAGGGAGGGCGGGGGTT [5'-biotin G7-TTATTAA]”, the dissociation constant (Kd) was 5 nM in data set [1], 13 nM in data set [2], 8 nM in data set [3] and 8 nM in data set [4].

Take “TTGGGGTAAGAAGGGAGGGCGGGGGTT [5'-biotin G7-TAAGAA]”: the Kd in data set [1] was 9 nM; in data set [2], 13 nM; in data set [3], 17 nM; in data set [4], 7 nM.

On to “TTGGGGTTAGGGAGGGCGGGGGTT [5'-biotin G7-TTA]”, for which the Kd stood at 13 nM in data set [1], 6 nM in data set [2], 7 nM in data set [3] and 10 nM in data set [4].

“TTGGGGTTATTAAGGGAGGGCGGGGGTT [G7-TTATTAA]”: the values for the Kd in data set [5], in data set [6] and in data set [7] were 28 nM, 50 nM and 90 nM, respectively.

For TTGGGGTAAGAAGGGAGGGCGGGGGTT [G7-TAAGAA], the Kd in data set [5], in data set [6] and in data set [7] was 60 nM throughout.

For the sequence TTGGGGTTAGGGAGGGCGGGGGTT [G7-TTA], the Kd was 28 nM in data set [5], 16 nM in data set [6] and 30 nM in data set [7].

For TTGGGGTTATTTTGGGAGGGCGGGGGTT [RHA0385], the values for the Kd in data set [5], in data set [6] and in data set [7] were 14 nM, 12 nM and 7 nM, respectively.

These data come from publication PMC7022617.
